The source of these data is paper PMC11464796.

This experiment addresses Msm RNAP core, recombinant (α, ω, β–β′ fusion with C-terminal His8) (Mycobacterium smegmatis) (UniProt A0QSL8).

B1: Msm HelD, wild type, recombinant tag-less (enzyme)
chain: MSGRDYEDELQSERDYVAGLYARLDAERAQSQRRYAAALREHGGTAVERDAEVRALAKDIARLNVADNGLCFGRLDTLDDARLYIGRLGIFDRDNDFEPLLLDWRAPMARPFYVATAANPENMRRRRQFHTLGRKVVDFTDEILGRPTGAEHDATNDAALLAAVNAPRGEGMRDIVATIQAEQDQVIRLDHTGVLVIEGGPGTGKTVVALHRVAYLLYTYRKQMERHGVLVVGPTPAFLDHIGRVLPSLGESDAVFMTPGDFVPGLHVTAEDTPEAAEVKGSLKILDVLKAAVADRQELPSEPIPIDLSDVTMRIDAETAKWARDEARKTGLPHNEARAEFVDVVTYVVTERAVARIGRGWLTRDDKHAWEKMRADVVGELEDHEQFNAALDALWPILTPEDVLAQLYTSHERLRAAGAPECLWRADGEAWTVSDVPLLDELVDLLGRNKAADEAAERERREEEAYAAGVLDLMVDREDLMDDEDHLLAQDLIDAEELADRFKEQDNRELSERAAADREWTYGHVVVDEAQELSEMDWRLLMRRCPRRSFTIVGDLAQRRSPAGARSWGAMLDSYVPGRWVYKSLSVNYRTPAEIMAVAAAVLAEFAPDATPPDSVRACGVAPWARQVTDDDIASAIAEFVSEEAGREGTSVVIGPPDVPGTVPPSETKGLEFDAVLVVEPERILADGPRGAAELYVALTRATQRLGVLYRDALPQALAGLAEGDAAATVEQRTSA
On to B1, for which the ATPase activity of the HelD–core and HelD–holoenzyme complexes against free HelD turned out to be 2.5 fold.
